US20190382500A1 (Novartis, published 2019)
Positions count from the first letter of the chain named.

T1: human recombinant (r)BCMA_Fc-AF647 (human, UniProt Q02223 1-54, AF647 fluorescent label (site not stated))
T1 construct: Staining reagent for CAR detection by flow cytometry; not shown: Fc part
T1 sequence (looked up): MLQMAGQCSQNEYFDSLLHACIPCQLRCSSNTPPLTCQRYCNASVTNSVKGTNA

B1: PI61 BCMA CAR (other)
chain: QVQLQESGGGVVQPGRSLRLSCAASGFTFSSYGMHWVRQAPGKGLEWVAVISYDGSNKYYADSVKGRFTISRDNSKNTLYLQMNSLRAEDTAVYYCGGSGYALHDDYYGLDVWGQGTLVTVSSGGGGSGGGGSGGGGSQSALTQPASVSGSPGQSITISCTGTSSDVGGYNYVSWYQQHPGKAPKLMIYDVSNRPSGVSNRFSGSKSGNTASLTISGLQAEDEADYYCSSYTSSSTLYVFGSGTKVTVLTTTPAPRPPTPAPTIASQPLSLRPEACRPAAGGAVHTRGLDFACDIYIWAPLAGTCGVLLLSLVITLYCKRGRKKLLYIFKQPFMRPVQTTQEEDGCSCRFPEEEEGGCELRVKFSRSADAPAYQQGQNQLYNELNLGRREEYDVLDKRRGRDPEMGGKPRRKNPQEGLYNELQKDKMAEAYSEIGMKGERRRGKGHDGLYQGLSTATKDTYDALHMQALPPR
notes: Chimeric antigen receptor expressed on JNL cells or primary human T cells after lentiviral transduction; also called P161
B2: Hy03 BCMA CAR (other)
chain: EVQLVESGGGLVQPGGSLRLSCAASGFTFSGFWMSWVRQAPGKGLEWVANIKQDGSEKYYVDSVRGRFTISRDNAKNSLYLQMNSLRAEDTAVYYCARALDYYGMDVWGQGTTVTVSSGGGGSGGGGSGGGGSGGGGSDIVMTQTPLSLPVTPGEPASISCRSSQSLLDSDDGNTYLDWYLQKPGQSPRLLIYTLSYRASGVPDRFSGSGSGTDFTLKISRVEAEDVGLYYCTQRLEFPSITFGQGTRLEIKTTTPAPRPPTPAPTIASQPLSLRPEACRPAAGGAVHTRGLDFACDIYIWAPLAGTCGVLLLSLVITLYCKRGRKKLLYIFKQPFMRPVQTTQEEDGCSCRFPEEEEGGCELRVKFSRSADAPAYQQGQNQLYNELNLGRREEYDVLDKRRGRDPEMGGKPRRKNPQEGLYNELQKDKMAEAYSEIGMKGERRRGKGHDGLYQGLSTATKDTYDALHMQALPPR
notes: Chimeric antigen receptor expressed on JNL cells or primary human T cells after lentiviral transduction
B3: B61-02 BCMA CAR (other)
chain: QVQLVESGGGVVQPGRSLRLSCAASGFTFSSYGMHWVRQAPGKGLEWVAVISYKGSNKYYADSVKGRFTISRDNSKNTLYLQMNSLRAEDTAVYYCGGSGYALHDDYYGLDVWGQGTLVTVSSGGGGSGGGGSGGGGSGGGGSQSALTQPASVSGSPGQSITISCTGTSSDVGGYNYVSWYQQHPGKAPKLMIYEVSNRLRGVSNRFSGSKSGNTASLTISGLQAEDEADYYCSSYTSSSALYVFGSGTKVTVLTTTPAPRPPTPAPTIASQPLSLRPEACRPAAGGAVHTRGLDFACDIYIWAPLAGTCGVLLLSLVITLYCKRGRKKLLYIFKQPFMRPVQTTQEEDGCSCRFPEEEEGGCELRVKFSRSADAPAYQQGQNQLYNELNLGRREEYDVLDKRRGRDPEMGGKPRRKNPQEGLYNELQKDKMAEAYSEIGMKGERRRGKGHDGLYQGLSTATKDTYDALHMQALPPR
notes: as for B2
B4: B61-10 BCMA CAR (other)
chain: B3 chain with A241T
notes: as for B2
B5: Hy52 BCMA CAR (other)
chain: EVQLVESGGGLVKPGGSLRLSCAASGFTFSSFRMNWVRQAPGKGLEWVSSISSSSSYIYYADSVKGRFTISRDNAKNSLYLQMNSLRAEDTAVYYCARWLSYYGMDVWGQGTTVTVSSGGGGSGGGGSGGGGSGGGGSDIVMTQTPLSLPVTPGEPASISCRSSQSLLDSDDGNTYLDWYLQKPGQSPQLLIYTLSFRASGVPDRFSGSGSGTDFTLKIRRVEAEDVGVYYCMQRIGFPITFGQGTRLEIKTTTPAPRPPTPAPTIASQPLSLRPEACRPAAGGAVHTRGLDFACDIYIWAPLAGTCGVLLLSLVITLYCKRGRKKLLYIFKQPFMRPVQTTQEEDGCSCRFPEEEEGGCELRVKFSRSADAPAYQQGQNQLYNELNLGRREEYDVLDKRRGRDPEMGGKPRRKNPQEGLYNELQKDKMAEAYSEIGMKGERRRGKGHDGLYQGLSTATKDTYDALHMQALPPR
notes: as for B2

Molecular target: T1, human recombinant (r)BCMA_Fc-AF647
Assay: flow cytometry, rBCMA_Fc-AF647 staining of CAR-transduced primary human T cells
Description: The following 8 CARs were chosen for analysis of CAR expression, stability and efficacy in primary T cells: R1B6, R1F2, RIGS, PI61, B61-10, B61-02, Hy03, and Hy52. BCMA CAR T cells were generated by starting with blood from healthy apheresed donors whose T cells (CD4+ and CD8+ lymphocytes) were obtained by negative selection for CD3+ T cells. These cells were activated by the addition of CD3/CD28 beads (Dynabeads® Human T-Expander CD3/CD28, Thermo Fisher Scientific) at a ratio of 1:3 (T cell to bead) in T cell medium (RPMI1640, 10% heat-inactivated fetal calf serum (FCS), 2 mM L-glutamine, 1× Penicillin/Streptomycin, 100 μM non-essential amino acids, 1 mM Sodium Pyruvate, 10 mM Hepes, and 55 μM 2-mercaptoethanol). T cells were cultured at 0.5×10⁶ T cells in 1 mL medium per well of a 24-well plate at 37° C., 5% CO₂. After 24 hours, when T cells were blasting, T cells were transduced with BCMA CAR virus at a multiplicity of infection (MOI) of 5. T cells began to divide in a logarithmic growth pattern, which was monitored by measuring the cell counts per mL, and T cells were diluted in fresh medium every two days and de-beaded and harvested for further analyses at day 9. Aliquots of T cells were stained to measure CAR expression by flow cytometry at day 5 and 9 on a FACS Fortessa (BD). All BCMA CAR T cells were produced under research grade (i.e., not clinical grade) manufacturing conditions.
The BCMA-CAR surface expression and its stability was assessed by measuring CAR % and MFI (mean fluorescence intensity) at day 5 and day 9 using flow cytometry analyses of rBCMA_Fc-AF647 stained cells (FIG. 2 and Table 17).

Row | Binder | CAR % on T cells, Day 5 | CAR % on T cells, Day 9 | CAR MFI on T cells, Day 5 | CAR MFI on T cells, Day 9
1 | B1 | 47.4% | 42.3% | 24400 MFI | 2100 MFI
2 | B2 | 33.7% | 18.1% | 9460 MFI | 929 MFI
3 | B3 | 33.5% | 23.6% | 29100 MFI | 3470 MFI
4 | B4 | 41.1% | 30.3% | 27300 MFI | 3290 MFI
5 | B5 | 35.1% | 36.1% | 33700 MFI | 2860 MFI
